# According to paper PMC9285634:
# Molecular target: Pyruvate kinase M2 (PKM2), endogenous (human (endogenous in HeLa and HCT116)) (UniProt P14618)
# Experiment: cross-linking; cell or tumor tissue lysate in PBS with 0.1% Triton X-100; 4 ug protein crosslinked with 0.025% glutaraldehyde for 2 min at 37 C, stopped with Tris-HCl pH 8.0 50 mM; SDS-PAGE and WB with anti-PKM2; cells with HITT overexpression or KD, HITT fragments, miR-106, FBP; HCT116 xenografts
# Chain of Pyruvate kinase M2 (PKM2), endogenous, P14618 1-531 (enzyme; other documents disagree on this pair) (P14618 whole entry): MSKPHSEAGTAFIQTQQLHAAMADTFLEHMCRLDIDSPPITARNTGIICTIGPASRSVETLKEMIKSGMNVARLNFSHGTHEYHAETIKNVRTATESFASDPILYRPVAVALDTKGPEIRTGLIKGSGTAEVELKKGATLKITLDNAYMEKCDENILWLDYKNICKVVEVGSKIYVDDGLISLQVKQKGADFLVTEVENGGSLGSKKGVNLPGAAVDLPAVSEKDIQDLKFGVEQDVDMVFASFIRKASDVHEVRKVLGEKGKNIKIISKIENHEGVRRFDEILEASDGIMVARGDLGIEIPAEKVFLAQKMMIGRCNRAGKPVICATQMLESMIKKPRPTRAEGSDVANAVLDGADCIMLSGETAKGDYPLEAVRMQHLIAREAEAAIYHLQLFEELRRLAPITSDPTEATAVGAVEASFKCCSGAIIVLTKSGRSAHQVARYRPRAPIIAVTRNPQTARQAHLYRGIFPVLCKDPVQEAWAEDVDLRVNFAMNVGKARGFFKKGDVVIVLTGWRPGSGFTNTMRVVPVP
substance,measurement,value
"Pyruvate kinase M2 (PKM2), endogenous, P14618 1-531 (enzyme; other documents disagree on this pair)",stoichiometry N,2
